For assay [1], the system named is Hsp90 complexes in Mia-PaCa-2 cell extract. Nature of the assay: Nano-LC-MS/MS of PU-beads pull-downs. The conditions noted are these: protein identified in PU-beads pull-down of Mia-PaCa-2 cell extract; QSTAR-Elite QTof MS. In kind it is binding, human. In outline: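 They came from PU-bead pull-downs of pre-cleared lysates (control beads, overnight, 4 °C), eluted by boiling in 2% SDS, gel-separated and run by data-dependent nano-ESI QTof MS/MS.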

Assay [2] relates to Hsp90 complexes in K562 cell extract. In words: Nano-LC-MS/MS of PU-beads pull-downs. In kind it is binding. The conditions noted are these: protein identified in PU-beads pull-down of K562 cell extract, QSTAR-Elite QTof MS. In outline:
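Proteins were identified by data-dependent nano LC-MS/MS (QTof, ESI) and Mascot searching (p<0.05), then reported as spectral counts and coverage via Scaffold. Inputs were PU-bead versus control-bead pull-downs from lysate pre-cleared with control beads overnight at 4 °C, eluted by boiling in 2% SDS.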

B1: NFKB1 (protein)
chain: MAEDDPYLGRPEQMFHLDPSLTHTIFNPEVFQPQMALPTDGPYLQILEQPKQRGFRFRYVCEGPSHGGLPGASSEKNKKSYPQVKICNYVGPAKVIVQLVTNGKNIHLHAHSLVGKHCEDGICTVTAGPKDMVVGFANLGILHVTKKKVFETLEARMTEACIRGYNPGLLVHPDLAYLQAEGGGDRQLGDREKELIRQAALQQTKEMDLSVVRLMFTAFLPDSTGSFTRRLEPVVSDAIYDSKAPNASNLKIVRMDRTAGCVTGGEEIYLLCDKVQKDDIQIRFYEEEENGGVWEGFGDFSPTDVHRQFAIVFKTPKYKDINITKPASVFVQLRRKSDLETSEPKPFLYYPEIKDKEEVQRKRQKLMPNFSDSFGGGSGAGAGGGGMFGSGGGGGGTGSTGPGYSFPHYGFPTYGGITFHPGTTKSNAGMKHGTMDTESKKDPEGCDKSDDKNTVNLFGKVIETTEQDQEPSEATVGNGEVTLTYATGTKEESAGVQDNLFLEKAMQLAKRHANALFDYAVTGDVKMLLAVQRHLTAVQDENGDSVLHLAIIHLHSQLVRDLLEVTSGLISDDIINMRNDLYQTPLHLAVITKQEDVVEDLLRAGADLSLLDRLGNSVLHLAAKEGHDKVLSILLKHKKAALLLDHPNGDGLNAIHLAMMSNSLPCLLLLVAAGADVNAQEQKSGRTALHLAVEHDNISLAGCLLLEGDAHVDSTTYDGTTPLHIAAGRGSTRLAALLKAAGADPLVENFEPLYDLDDSWENAGEDEGVVPGTTPLDMATSWQVFDILNGKPYEPEFTSDDLLAQGDMKQLAEDVKLQLYKLLEIPDPDKNWATLAQKLGLGILNNAFRLSPAPSKTLMDNYEVSGGTVRELVEALRQMGYTEAIEVIQAASSPVKTTSQAHSLPLSPASTRQQIDELRDSDSVCDSGVETSFRKLSFTESLTSGASLLTLNKMPHDYGQEGPLEGKI
With B1, in assay [1], the “Number of Assigned Spectra, Mia-Paca 2” value was determined as 2. Also, in assay [2], the “Number of Assigned Spectra, K562 Prep 1” value came to 1 and the “Number of Assigned Spectra, K562 Prep 2” value was 0.

B2: PSPC1 (protein, UniProt Q8WXF1 1-523, looked up)
Paraspeckle component 1: MMLRGNLKQVRIEKNPARLRALESAVGESEPAAAAAMALALAGEPAPPAPAPPEDHPDEEMGFTIDIKSFLKPGEKTYTQRCRLFVGNLPTDITEEDFKRLFERYGEPSEVFINRDRGFGFIRLESRTLAEIAKAELDGTILKSRPLRIRFATHGAALTVKNLSPVVSNELLEQAFSQFGPVEKAVVVVDDRGRATGKGFVEFAAKPPARKALERCGDGAFLLTTTPRPVIVEPMEQFDDEDGLPEKLMQKTQQYHKEREQPPRFAQPGTFEFEYASRWKALDEMEKQQREQVDRNIREAKEKLEAEMEAARHEHQLMLMRQDLMRRQEELRRLEELRNQELQKRKQIQLRHEEEHRRREEEMIRHREQEELRRQQEGFKPNYMENREQEMRMGDMGPRGAINMGDAFSPAPAGNQGPPPMMGMNMNNRATIPGPPMGPGPAMGPEGAANMGTPMMPDNGAVHNDRFPQGPPSQMGSPMGSRTGSETPQAPMSGVGPVSGGPGGFGRGSQGGNFEGPNKRRRY
Turning to B2, in assay [1], the “Number of Assigned Spectra, Mia-Paca 2” value is 0. Further, in assay [2], the “Number of Assigned Spectra, K562 Prep 1” value is listed as 5 and the “Number of Assigned Spectra, K562 Prep 2” value stood at 2.

B3: DIABLO (protein, UniProt Q9NR28 22-239, looked up)
Diablo IAP-binding …: LCVPVVANFKKRCFSELIRPWHKTVTIGFGVTLCAVPIAQKSEPHSLSSEALMRRAVSLVTDSTSTFLSQTTYALIEAITEYTKAVYTLTSLYRQYTSLLGKMNSEEEDEVWQVIIGARAEMTSKHQEYLKLETTWMTAVGLSEMAAEAAYQTGADQASITARNHIQLVKLQVEEVHQLSRKAETKLAEAQIEELRQKTQEEGEERAESEQEAYLRED
With B3, the “Number of Assigned Spectra, Mia-Paca 2” value in assay [1] was 2. Also, in assay [2], the “Number of Assigned Spectra, K562 Prep 1” value came to 1 and the “Number of Assigned Spectra, K562 Prep 2” value was found to be 0.

B4: FTSJD2 (protein, UniProt Q8N1G2 1-835, looked up)
Cap-specific mRNA …: MKRRTDPECTAPIKKQKKRVAELALSLSSTSDDEPPSSVSHGAKASTTSLSGSDSETEGKQHSSDSFDDAFKADSLVEGTSSRYSMYNSVSQKLMAKMGFREGEGLGKYSQGRKDIVEASSQKGRRGLGLTLRGFDQELNVDWRDEPEPSACEQVSWFPECTTEIPDTQEMSDWMVVGKRKMIIEDETEFCGEELLHSVLQCKSVFDVLDGEEMRRARTRANPYEMIRGVFFLNRAAMKMANMDFVFDRMFTNPRDSYGKPLVKDREAELLYFADVCAGPGGFSEYVLWRKKWHAKGFGMTLKGPNDFKLEDFYSASSELFEPYYGEGGIDGDGDITRPENISAFRNFVLDNTDRKGVHFLMADGGFSVEGQENLQEILSKQLLLCQFLMALSIVRTGGHFICKTFDLFTPFSVGLVYLLYCCFERVCLFKPITSRPANSERYVVCKGLKVGIDDVRDYLFAVNIKLNQLRNTDSDVNLVVPLEVIKGDHEFTDYMIRSNESHCSLQIKALAKIHAFVQDTTLSEPRQAEIRKECLRLWGIPDQARVAPSSSDPKSKFFELIQGTEIDIFSYKPTLLTSKTLEKIRPVFDYRCMVSGSEQKFLIGLGKSQIYTWDGRQSDRWIKLDLKTELPRDTLLSVEIVHELKGEGKAQRKISAIHILDVLVLNGTDVREQHFNQRIQLAEKFVKAVSKPSRPDMNPIRVKEVYRLEEMEKIFVRLEMKIIKGSSGTPKLSYTGRDDRHFVPMGLYIVRTVNEPWTMGFSKSFKKKFFYNKKTKDSTFDLPADSIAPFHICYYGRLFWEWGDGIRVHDSQKPQDQDKLSKEDVLSFIQMHRA
B4: the “Number of Assigned Spectra, Mia-Paca 2” value in assay [1] stood at 0. In assay [2], the “Number of Assigned Spectra, K562 Prep 1” value is 3 and the “Number of Assigned Spectra, K562 Prep 2” value is recorded as 1.

B5: ZC3HAV1 (protein, UniProt Q7Z2W4 2-902, looked up)
Zinc finger CCCH-type …: ADPEVCCFITKILCAHGGRMALDALLQEIALSEPQLCEVLQVAGPDRFVVLETGGEAGITRSVVATTRARVCRRKYCQRPCDNLHLCKLNLLGRCNYSQSERNLCKYSHEVLSEENFKVLKNHELSGLNKEELAVLLLQSDPFFMPEICKSYKGEGRQQICNQQPPCSRLHICDHFTRGNCRFPNCLRSHNLMDRKVLAIMREHGLNPDVVQNIQDICNSKHMQKNPPGPRAPSSHRRNMAYRARSKSRDRFFQGSQEFLASASASAERSCTPSPDQISHRASLEDAPVDDLTRKFTYLGSQDRARPPSGSSKATDLGGTSQAGTSQRFLENGSQEDLLHGNPGSTYLASNSTSAPNWKSLTSWTNDQGARRKTVFSPTLPAARSSLGSLQTPEAVTTRKGTGLLSSDYRIINGKSGTQDIQPGPLFNNNADGVATDITSTRSLNYKSTSSGHREISSPRIQDAGPASRDVQATGRIADDADPRVALVNDSLSDVTSTTSSRVDDHDSEEICLDHLCKGCPLNGSCSKVHFHLPYRWQMLIGKTWTDFEHMETIEKGYCNPGIHLCSVGSYTINFRVMSCDSFPIRRLSTPSSVTKPANSVFTTKWIWYWKNESGTWIQYGEEKDKRKNSNVDSSYLESLYQSCPRGVVPFQAGSRNYELSFQGMIQTNIASKTQKDVIRRPTFVPQWYVQQMKRGPDHQPAKTSSVSLTATFRPQEDFCFLSSKKYKLSEIHHLHPEYVRVSEHFKASMKNFKIEKIKKIENSELLDKFTWKKSQMKEEGKLLFYATSRAYVESICSNNFDSFLHETHENKYGKGIYFAKDAIYSHKNCPYDAKNVVMFVAQVLVGKFTEGNITYTSPPPQFDSCVDTRSNPSVFVIFQKDQVYPQYVIEYTEDKACVIS
Turning to B5, the “Number of Assigned Spectra, Mia-Paca 2” value in assay [1] came out at 0. Also, in assay [2], the “Number of Assigned Spectra, K562 Prep 1” value was found to be 7 and the “Number of Assigned Spectra, K562 Prep 2” value is 0.

B6: SARM1 (protein, UniProt Q6SZW1 28-724, looked up)
NAD(+) hydrolase SARM1: LAVPGPDGGGGTGPWWAAGGRGPREVSPGAGTEVQDALERALPELQQALSALKQAGGARAVGAGLAEVFQLVEEAWLLPAVGREVAQGLCDAIRLDGGLDLLLRLLQAPELETRVQAARLLEQILVAENRDRVARIGLGVILNLAKEREPVELARSVAGILEHMFKHSEETCQRLVAAGGLDAVLYWCRRTDPALLRHCALALGNCALHGGQAVQRRMVEKRAAEWLFPLAFSKEDELLRLHACLAVAVLATNKEVEREVERSGTLALVEPLVASLDPGRFARCLVDASDTSQGRGPDDLQRLVPLLDSNRLEAQCIGAFYLCAEAAIKSLQGKTKVFSDIGAIQSLKRLVSYSTNGTKSALAKRALRLLGEEVPRPILPSVPSWKEAEVQTWLQQIGFSKYCESFREQQVDGDLLLRLTEEELQTDLGMKSGITRKRFFRELTELKTFANYSTCDRSNLADWLGSLDPRFRQYTYGLVSCGLDRSLLHRVSEQQLLEDCGIHLGVHRARILTAAREMLHSPLPCTGGKPSGDTPDVFISYRRNSGSQLASLLKVHLQLHGFSVFIDVEKLEAGKFEDKLIQSVMGARNFVLVLSPGALDKCMQDHDCKDWVHKEIVTALSCGKNIVPIIDGFEWPEPQVLPEDMQAVLTFNGIKWSHEYQEATIEKIIRFLQGRSSRDSSAGSDTSLEGAAPMGPT
For the molecule B6, the “Number of Assigned Spectra, Mia-Paca 2” value in assay [1] is 5. Moreover, in assay [2], the “Number of Assigned Spectra, K562 Prep 1” value is 0 and the “Number of Assigned Spectra, K562 Prep 2” value worked out at 0.

B7: SLC3A2 (protein, UniProt P08195 1-630, looked up)
Amino acid transporter heavy …: MELQPPEASIAVVSIPRQLPGSHSEAGVQGLSAGDDSELGSHCVAQTGLELLASGDPLPSASQNAEMIETGSDCVTQAGLQLLASSDPPALASKNAEVTGTMSQDTEVDMKEVELNELEPEKQPMNAASGAAMSLAGAEKNGLVKIKVAEDEAEAAAAAKFTGLSKEELLKVAGSPGWVRTRWALLLLFWLGWLGMLAGAVVIIVRAPRCRELPAQKWWHTGALYRIGDLQAFQGHGAGNLAGLKGRLDYLSSLKVKGLVLGPIHKNQKDDVAQTDLLQIDPNFGSKEDFDSLLQSAKKKSIRVILDLTPNYRGENSWFSTQVDTVATKVKDALEFWLQAGVDGFQVRDIENLKDASSFLAEWQNITKGFSEDRLLIAGTNSSDLQQILSLLESNKDLLLTSSYLSDSGSTGEHTKSLVTQYLNATGNRWCSWSLSQARLLTSFLPAQLLRLYQLMLFTLPGTPVFSYGDEIGLDAAALPGQPMEAPVMLWDESSFPDIPGAVSANMTVKGQSEDPGSLLSLFRRLSDQRSKERSLLHGDFHAFSAGPGLFSYIRHWDQNERFLVVLNFGDVGLSAGLQASDLPASASLPAKADLLLSTQPGREEGSPLELERLKLEPHEGLLLRFPYAA
For the molecule B7, the “Number of Assigned Spectra, Mia-Paca 2” value in assay [1] was 0. For the same molecule, in assay [2], the “Number of Assigned Spectra, K562 Prep 1” value turned out to be 3 and the “Number of Assigned Spectra, K562 Prep 2” value was found to be 0.

The values above are taken from patent US20220074941A1, “HSP90 COMBINATION THERAPY” (Sloan-Kettering Institute for Cancer Research, priority 2011, published 2022).
